{"source": "paper PMC3159454", "about": "(Nucleic Acids Research, 2011)", "proteins": {"B1": {"name": "Elk-1 (recombinant, full length) (natural protein, UniProt P19419 1-428, looked up)", "chain": "MDPSVTLWQFLLQLLREQGNGHIISWTSRDGGEFKLVDAEEVARLWGLRKNKTNMNYDKLSRALRYYYDKNIIRKVSGQKFVYKFVSYPEVAGCSTEDCPPQPEVSVTSTMPNVAPAAIHAAPGDTVSGKPGTPKGAGMAGPGGLARSSRNEYMRSGLYSTFTIQSLQPQPPPHPRPAVVLPSAAPAGAAAPPSGSRSTSPSPLEACLEAEEAGLPLQVILTPPEAPNLKSEELNVEPGLGRALPPEVKVEGPKEELEVAGERGFVPETTKAEPEVPPQEGVPARLPAVVMDTAGQAGGHAASSPEISQPQKGRKPRDLELPLSPSLLGGPGPERTPGSGSGSGLQAPGPALTPSLLPTHTLTPVLLTPSSLPPSIHFWSTLSPIAPRSPAKLSFQFPSSGSAQVHIPSISVDGLSTPVVLSPGPQKP"}}, "target": "the molecule itself", "assay": "SEC"}
{"protein": "B1", "values": [{"measurement": "stoichiometry N", "result": 2}]}
